According to publication PMC3282106:

Experiments:
Assay in all cases: ITC
T-Mod(Dss1A) = T-Mod(Dss1A) (UniProt P31948)
T-Mod(Dss1B) = T-Mod(Dss1B) (UniProt P31948)
the T-Mods = target: the T-Mods

| Kd (T-Mod(Dss1A)) | stoichiometry N (T-Mod(Dss1A)) | Kd (T-Mod(Dss1B)) | stoichiometry N (T-Mod(Dss1B)) | Kd (the T-Mods) | Molecule |
| --- | --- | --- | --- | --- | --- |
| 157 µM | 0.8 | 665 µM | – | – | Dss1-C19 peptide mutant R57A (from UniProt P60896 52-70) |
| 20.2 µM | 0.8 | 18.6 µM | 1.1 | – | Dss1-C19 peptide (from UniProt P60896 52-70) |
| – | – | – | – | 175 µM | Sem1 (natural protein) MSTDVAAAQAQSKIDLTKKKNEEINKKSLEEDDEFEDFPIDTWANGETIKSNAVTQTNIWEENWDDVEVDDDFTNELKAELDRYKRENQ |
